Data reported in patent publication US20170007671A1.

Target: Neuregulin-1 receptors (ErbB3 or ErbB4) on MCF-7 human breast cancer cells
Assay: cell-based or functional assay

Biological activity; ErbB2 phosphorylation ELISA on MCF-7 cell lysates; Reference Sample (0 g/L HSA): 1500 U | Biological activity; ErbB2 phosphorylation ELISA on MCF-7 cell lysates; Sample A (0.5 g/L HSA): 1730 U | Biological activity; ErbB2 phosphorylation ELISA on MCF-7 cell lysates; Sample B (2 g/L HSA): 3500 U | Biological activity; ErbB2 phosphorylation ELISA on MCF-7 cell lysates; Sample C (8 g/L HSA): 4000 U | EC50 value; ErbB2 phosphorylation ELISA on MCF-7 cell lysates; Reference Sample (0 g/L HSA): 0.0505 | EC50 value; ErbB2 phosphorylation ELISA on MCF-7 cell lysates; Sample A (0.5 g/L HSA): 0.0439 | EC50 value; ErbB2 phosphorylation ELISA on MCF-7 cell lysates; Sample B (2 g/L HSA): 0.0217 | EC50 value; ErbB2 phosphorylation ELISA on MCF-7 cell lysates; Sample C (8 g/L HSA): 0.0189 | OD50 value; ErbB2 phosphorylation ELISA on MCF-7 cell lysates; Reference Sample (0 g/L HSA): 0.391 OD | OD50 value; ErbB2 phosphorylation ELISA on MCF-7 cell lysates; Sample A (0.5 g/L HSA): 0.393 OD | OD50 value; ErbB2 phosphorylation ELISA on MCF-7 cell lysates; Sample B (2 g/L HSA): 0.406 OD | OD50 value; ErbB2 phosphorylation ELISA on MCF-7 cell lysates; Sample C (8 g/L HSA): 0.424 OD | Standard sample EC50/sample EC50; ErbB2 phosphorylation ELISA on MCF-7 cell lysates; Sample A (0.5 g/L HSA) against Reference Sample: 1.15 | Standard sample EC50/sample EC50; ErbB2 phosphorylation ELISA on MCF-7 cell lysates; Sample B (2 g/L HSA) against Reference Sample: 2.33 | Standard sample EC50/sample EC50; ErbB2 phosphorylation ELISA on MCF-7 cell lysates; Sample C (8 g/L HSA) against Reference Sample: 2.67 | specific activity; ErbB2 phosphorylation ELISA on MCF-7 cell lysates; Reference Sample (0 g/L HSA): 6000 U/mg | specific activity; ErbB2 phosphorylation ELISA on MCF-7 cell lysates; Sample A (0.5 g/L HSA): 6900 U/mg | specific activity; ErbB2 phosphorylation ELISA on MCF-7 cell lysates; Sample B (2 g/L HSA): 14000 U/mg | specific activity; ErbB2 phosphorylation ELISA on MCF-7 cell lysates; Sample C (8 g/L HSA): 16000 U/mg
B1: recombinant human Neuregulin-1 (rhNRG-1) (ligand)
chain: SHLVKCAEKEKTFCVNGGECFMVKDLSNPSRYLCKCPNEFTGDRCQNYVMASFYKAEELYQ
